B1: human AA amyloid (renal AA amyloid extract or tissue deposits) (other, UniProt P0DJI8 19-94, looked up)
chain: RSFFSFLGEAFDGARDMWRAYSDMREANYIGSDKYFHARGNYDAAKRGPGGAWAAEVITDARENIQRFFGHGAEDS
notes: Heterogeneous tissue-derived amyloid; also called human renal AA amyloid extract; human AA amyloid extract
B2: murine AA amyloid (AA fibrils, amyloid enhancing factor extract or tissue deposits) (other, mouse, UniProt P05367 20-94, looked up)
chain: GFFSFIGEAFQGAGDMWRAYTDMKEAGWKDGDKYFHARGNYDAAQRGPGGVWAAEKISDARESFQEFFGRGHEDT
notes: Heterogeneous tissue-derived amyloid; also called Mouse AA (AEF); murine AA fibrils
B3: peptide 41, GHEDTIADQE (peptide)
peptide: GHEDTIADQE
notes: also called p41; p#41
B4: peptide 39, CGGHEDT (immunogen peptide EPRB-39) (peptide)
peptide: CGGHEDT
notes: also called p39; p#39
B5: murine monoclonal antibody 2A4 (antibody, V domains shown)
VH: EVQLVESGGRLVQPKGSLKLSCAASGFTFNTYAMYWIRQAPGKGLEWVARIRSKSNNYAIYYADSVKDRFTIFRDDSQSMLYLQMNNLKTEDTAMYYCVRPYSDSFAYWGQGTLVTVSA
VL: DVVMTQTPLSLPVSLGDQASISCRSSQSLVHSTGNTYLHWYLQKPGQSPKLLIYKVSNRFSGVPDRFSGSGSGTYFTLKISRVEAEDLGVYFCSQSTHVPFTFGGGTKLEIK
notes: Mouse IgG2b kappa; Used as hybridoma culture supernatant or protein A-purified mAb; also called mAb 2A4; 2A4.20.44.77
B6: murine monoclonal antibody 8G9 (antibody, mouse IgG2b, V domains shown)
VH: EVQLVESGGRLVQPKGSLKLSCAASGFTFNTYAMYWIRQAPGKGLEWVARIRSKSNNYAIYYADSVKDRFTIFRDDSQSMLYLQMNNLKTEDTAMYYCVRPYSDSFAYWGQGTLVTVSA
VL: DVVMTQTPLSLPVSLGDQASISCRSSQSLVHSTGNTYLHWYLQKPGQSPKLLIYKVSNRFSGVPDRFSGSGSGTYFTLKISRVEAEDLGVYFCSQSTHVPFTFGGGTKLEIK
notes: Mouse IgG2b kappa; also called mAb 8G9; 8G9.3.4.51.22
B7: murine monoclonal antibody 7D8 (antibody, mouse IgG2b, V domains shown)
VH: EVQLVESGGRLVQPKGSLKLSCAASGFTFNTYAMYWIRQAPGKGLEWVARIRSKSNNYAIYYADSVKDRFTIFRDDSQSMLYLQMNNLKTEDTAMYYCVRPYSDSFAYWGQGTLVTVSA
VL: DVVMTQTPLSLPVSLGDQASISCRSSLSLVHSTGNTYLHWYLQKPGQSPKLLIYKVSNRFSGVPDRFSGSGSGTYFTLKISRVEAEDLGVYFCSQSTHVPFTFGGGTKLEIK
notes: Mouse IgG2b kappa; also called mAb 7D8; 7D8.29.19.47

Columns and labels:
[1] = target: B5; assay: competition ELISA: human AA amyloid in solution against adsorbed mouse AA (AEF), mAb 2A4
Experimental: (§1) To determine the effect, if any, of potential denaturation when adsorbed to the surface of the microtiter well, the reactivity of the 2A4, 8G9 and […] was evaluated using a competition ELISA in which murine or human AA amyloid extract was used as a soluble competitor for the interaction of the mAbs with surface-bound AA extract.
(§2) In general, the murine AA (AEF) extract was a better competitor than the human AA (Table 6).

[2] = target: B7; assay: competition ELISA: human AA amyloid in solution against adsorbed mouse AA (AEF), mAb 7D8
Experimental: as §1, §2

[3] = target: B6; assay: competition ELISA: human AA amyloid in solution against adsorbed mouse AA (AEF), mAb 8G9
Experimental: as §1, §2

[4] = target: B5; assay: competition ELISA: mouse AA (AEF) in solution against adsorbed human AA amyloid extract, mAb 2A4
Experimental: as §1, §2

[5] = target: B7; assay: competition ELISA: mouse AA (AEF) in solution against adsorbed human AA amyloid extract, mAb 7D8
Experimental: as §1, §2

[6] = target: B6; assay: competition ELISA: mouse AA (AEF) in solution against adsorbed human AA amyloid extract, mAb 8G9
Experimental: as §1, §2

[7] = target: B5; assay: immunohistochemistry, preincubation of 2A4 supernatant with peptide before staining murine AA amyloid
Text: The reactivity of supernatants from hybridomas expressing antibodies 2A4, 8G9 and 7D8 to murine AA splenic and hepatic amyloid deposits (the principal sites of amyloid deposition) was documented immunohistochemically. For these studies, sections of tissue harvested from a TRIAD mouse with extensive AA amyloid in the liver and spleen (as evidenced by green birefringent Congophilic deposits) were stained with the mAb-containing supernatants. All 3 bound to the hepatic and splenic amyloid. In contrast, there was no reactivity with culture supernatants derived from irrelevant hybridomas. The capability of the amyloid using 2A4, 8G9 and 7D8 to immunostain amyloid in fresh (unfixed), OCT-embedded murine liver and spleen was tested. There was evidence that the mAbs retained their ability to bind AA amyloid in the hepatic sinusoid. In addition, the antibody reactivity with splenic tissue was easier to interpret, and the perifollicular amyloid was intensely immunostained. […] In contrast, the p#41 peptide was ineffective.

[8] = target: B6; assay: immunohistochemistry with peptide inhibition, human ovarian tissue
[9] = target: B5; assay: immunohistochemistry, supernatant (1:25) preincubated with peptide
[10] = target: B7; assay: SPR competition, 7D8 with p39 at 1 µg/mL over immobilized Vλ6 Wil fibrils
peptide 40, CGGAEDS = target: T1, peptide 40, CGGAEDS; assay: BIAcore analysis of peptide binding
T1 peptide: CGGAEDS

peptide 64, CGGAEDT = target: T2, peptide 64, CGGAEDT; assay: BIAcore analysis of peptide binding
T2 peptide: CGGAEDT

peptide 67, CGGHEDA = target: T3, peptide 67, CGGHEDA; assay: BIAcore analysis of peptide binding
T3 peptide: CGGHEDA

[11] = target: B4; assay: ELISA, purified mAb on adsorbed peptide 39
peptide 41, GHEDTIADQE = target: B3; assay: ELISA, purified mAb on adsorbed peptide 41
Experimental: (§3) Protein Mr markers (Std) are, form top to bottom: 176, 119, 75, 49, 39, 25 and 19 kDa. The interaction of the purified mAbs with immunizing peptide p#39, control peptide (p#41), murine and human AA extracts were determined by ELISA as described above.
(§4) In contrast, even at the highest concentration of mAb used (100 nM) there was little detectable binding to the p#41 peptide (FIG. 33—Each point represents the mean±SE, (n=3 at each concentration)). […] The calculated EC50 values for the mAbs binding to mouse AA extract were essentially identical to those obtained when the p#39 peptide was used as the substrate (FIG. 34; Table 5). […] Because the EC50 value for 7D8 mAb binding was the lowest of the 3 antibodies tested, Applicants selected this reagent for in vivo co-localization and imaging studies. The 2 amino acid substitutions in the human SAA sequence with respect to the murine protein affected the EC50 values.

[12] = target: B2; assay: ELISA, purified mAb on adsorbed mouse AA (AEF)
Experimental: as §3, §4

[13] = target: B2; assay: ELISA, hybridoma culture supernatant on murine AA (AEF)
Text: The interaction of 2A4, 8G9 and 7D8 mAbs with AA amyloid was initially tested by ELISA and the data, given in FIG. 31, analyzed using SigmaPlot (SPSS Inc.). Each point represents the mean±SE (n=3). A culture supernatant from an irrelevant hybridoma was used as a control (Ctrl Culture Sup). […] (In addition, the immunohistochemical reactivity of the day 1 material was greater than the day 2 samples). […] Because of the low signal and high variability found with the culture supernatants and to determine more accurately the relative binding affinity of the mAbs for murine and human AA amyloid fibrils (as well as to provide material for in vivo biodistribution studies) it was necessary to isolate the mAbs by protein A affinity chromatography. The purity of the isolated mAbs was established SDS-PAGE using 10% acrylamide gels under reducing and non-reducing conditions (FIG. 32). Samples in lanes 1-4 treated with mercaptoethanol, lanes 5-9 without. Gel was stained with Coomassie blue: mAb 8G9, lanes 1 and 6; mAb 2A4, lanes 2 and 7; mAb 7D8, lanes 3 and 8; SP2/0 control supernatant, lanes 4 and 9; blank, lane 5. Protein Mr markers (Std) are, form top to bottom: 176, 119, 75, 49, 39, 25 and 19 kDa. The interaction of the purified mAbs with immunizing peptide p#39, control peptide (p#41), murine and human AA extracts were determined by ELISA as described above.

[14] = target: B1; assay: ELISA, purified mAb on adsorbed human AA amyloid extract
Experimental: as §3, §4

Binder: B1
IC50 [1]: > 212 µg/mL | IC50 [2]: > 881 µg/mL | IC50 [3]: > 120 µg/mL

Binder: B2
IC50 [4]: 14.7 µg/mL | IC50 [5]: 26.8 µg/mL | IC50 [6]: 17.3 µg/mL

Binder: B3
binding result [7]: no binding (tested: 50 µg/mL)

Binder: B4
binding result [8]: binds | binding result [9]: binds | fold decrease in the extent of binding of 7D8 to Vλ6 Wil fibrils [10]: > 2 fold

Binder: B5
binding result (peptide 40, CGGAEDS): binds | binding result (peptide 64, CGGAEDT): binds | binding result (peptide 67, CGGHEDA): binds | EC50 [11]: 3.4 nM | EC50 (peptide 41, GHEDTIADQE): > 100 nM | EC50 [12]: 4.09 nM | dilution of culture supernatant after which reactivity is absent [13]: ~64 dilution factor (1:x) | EC50 [14]: 26.4 nM

Binder: B6
EC50 [11]: 4 nM | EC50 (peptide 41, GHEDTIADQE): > 100 nM | EC50 [12]: 5.64 nM | dilution of culture supernatant after which reactivity is absent [13]: ~64 dilution factor (1:x) | EC50 [14]: 31.7 nM

Binder: B7
binding result (peptide 40, CGGAEDS): binds | binding result (peptide 64, CGGAEDT): binds | binding result (peptide 67, CGGHEDA): binds | EC50 [11]: 2.3 nM | EC50 (peptide 41, GHEDTIADQE): > 100 nM | EC50 [12]: 1.84 nM | dilution of culture supernatant after which reactivity is absent [13]: ~64 dilution factor (1:x) | EC50 [14]: 13.3 nM
